B1: Protein PIGBOS1 (Homo sapiens), A0A0B4J2F0 (parent)
chain: MFRRLTFAQLLFATVLGIAGGVYIFQPVFEQYAKDQKELKEKMQLVQESEEKKS
partner: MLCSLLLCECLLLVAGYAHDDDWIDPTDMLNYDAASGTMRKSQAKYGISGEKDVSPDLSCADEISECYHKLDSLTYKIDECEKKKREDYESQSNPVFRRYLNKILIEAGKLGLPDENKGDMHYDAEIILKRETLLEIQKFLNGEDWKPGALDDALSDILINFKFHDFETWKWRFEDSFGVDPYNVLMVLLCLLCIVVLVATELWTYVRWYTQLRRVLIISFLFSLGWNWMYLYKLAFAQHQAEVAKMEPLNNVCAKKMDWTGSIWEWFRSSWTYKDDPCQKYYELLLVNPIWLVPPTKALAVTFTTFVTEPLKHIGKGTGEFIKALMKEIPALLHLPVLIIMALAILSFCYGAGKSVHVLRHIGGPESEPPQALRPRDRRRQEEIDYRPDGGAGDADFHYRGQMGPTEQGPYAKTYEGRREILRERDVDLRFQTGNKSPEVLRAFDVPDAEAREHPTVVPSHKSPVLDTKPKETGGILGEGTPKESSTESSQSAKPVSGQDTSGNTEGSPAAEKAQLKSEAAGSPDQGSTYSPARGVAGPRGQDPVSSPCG

In this assay the parent is B1. To be noted: with clcc1_human CLCC1, Q96S66.
In the case of MFRRLTFAQLLFATVLGIAGGVYIFQPVFEQYAAAAKELKEKMQLVQESEEKKS [K34A;D35A;Q36A], the “effect of a mutation on the interaction” value was “decreasing interaction strength”.
The same measure for MFRRLTFAQLLFATVLGIAGGVYIFQPVFEQYAKDQKELKEKMQLVQESEEAAA [K52A;K53A;S54A]: “with no effect”; for MFRRLTFAQLLFATVLGIAGGVYIFQPVFAAAAKDQKELKEKMQLVQESEEKKS [E30A;Q31A;Y32A]: “disrupting interaction strength”.
Consider MFRRLTFAQLLFATVLGIAGGVYIFQPVFEQYAKDQKELAAAMQLVQESEEKKS [K40A;E41A;K42A], for which the “effect of a mutation on the interaction” value was “with no effect”.
The same measure for MFRRLTFAQLLFATVLGIAGGVYIFQPVFEQYAKDQKELKEKMQLAAASEEKKS [V46A;Q47A;E48A]: “with no effect”; for MFRRLTFAQLLFATVLGIAGGVYIFQPVFEQYAKDQKELKEKMQLVQEAAAKKS [S49A;E50A;E51A]: “with no effect”; for MFRRLTFAQLLFATVLGIAGGVYIFQPVFEQYAKDQKELKEKAAAVQESEEKKS [M43A;Q44A;L45A]: “with no effect”.
The same measure for MFRRLTFAQLLFATVLGIAGGVYIFQPVFEQYAKDQAAAKEKMQLVQESEEKKS [K37A;E38A;L39A]: “with no effect”.

Values taken from IntAct's records for PubMed 31653868.
